These results are taken from patent US5420243.

Ends that are not written are not given here.

The target of assay [1] is L6 rat muscle myoblast TGF-β receptor (rat). The assay is described as follows: competition against 125I-TGF-β2 on L6 rat muscle myoblast TGF-β receptor (Example 5).
The target is the same in assay [2]. As to the kind of experiment: competition against 125I-TGF-β2 on L6 rat muscle myoblasts; called apparent dissociation constant of approximately 3 µM in paragraph 85.
Assay [3] has the same target. As to the kind of experiment: competition against 125I-TGF-β2 on L6 rat muscle myoblasts.

With TGF-β2 (from UniProt P61812) (ligand), the ED50 in assay [1] amounted to 60 pM.

As to CLRPLYIDFKRDLGWKWIHEPKGYNANFCAGA (also: dimer linked by a single disulfide bond, Cys pairing not settled) [TGF-β2 16-47 dimer], the ED50 in assay [2] stood at 3 µM.

As to CLRPLYIDFKRDLGWKWIHEPKGYNANFCAGA [TGF-β2 16-47 monomer], the ED50 in assay [3] stood at 30 µM.

On to CLRPLYIDFKRDLGWK (also: disulfide-linked dimer) [TGF-β2 16-31 dimer], for which, in assay [3], the ED50 was determined as 30 µM.
